{"source": "paper PMC9959518", "about": "“Influence of the Drug Position on Bioactivity in Angiopep-2—Daunomycin Conjugates” (International Journal of Molecular Sciences, 2023)", "key": {"[1]": {"tested_on": "U87 human glioblastoma cells", "assay": "In vitro cellular uptake by flow cytometry", "format": "cell-based", "conditions": "50 µM", "description": "The in vitro cytostatic effect of any peptide–drug conjugate is influenced by many factors. One of the main effects is the cellular uptake of the conjugates by cells. Therefore, we compared the cellular uptake of the different conjugates on U87 glioblastoma cells. The cells were incubated with the conjugates (2, 10, and 50 µM) for 1 h. Then, after a washing step, the cells were treated with trypsin to remove the cell surface-bound conjugates and other cell surface structures that enable non-specific binding, so only the quantity of the conjugates actually entering the cells was detected by flow cytometry. […] The cellular uptake of the conjugates was concentration-dependent. […]\nU87 cells were plated into 24-well tissue culturing plates with the initial cell number of 10^5 cells/well 24 h before the experiment. […] Data were recorded for 5000–10,000 cells at λex = 488 nm. The fluorescence mean was calculated. Daunomycin-positive cells were also gated from the living cell population, and the percentage of daunomycin-containing cells was calculated. The gating was determined from the untreated control cell count/fluorescence intensity histogram by adjusting the lowest fluorescence intensity value of the gated cells to the highest fluorescence intensity value of the live population of untreated control cells. Cells showing fluorescence intensities above this were considered as Dau-positive. […]"}, "[2]": {"tested_on": "U87 human glioblastoma cells", "format": "cell-based", "conditions": "MTT test, 0.05–50 µM, treated 24 h (method: overnight), washed, further 48 h (method: 72 h) at 37 °C, two independent experiments with four parallel measurements", "description": "The in vitro cytostatic effect of the synthesized peptide (1) and daunomycin-peptide conjugates (2–8) was investigated on U87 human glioblastoma cells. The cells were treated with the peptide and conjugates at different concentrations (0.05–50 μM) for 24 h, and after a washing step, the cells were incubated for another […] at 37 °C. The cytostatic effect of the compounds was determined using the MTT test.\nU87 human glioblastoma cell line was cultured in DMEM supplemented with 10% FBS, 2 mM L-glutamine, penicillin–streptomycin antibiotic mixture (50 IU/mL and 50 μg/mL, respectively), 1 mM sodium pyruvate, and 1% non-essential amino acid mixture. The cell culture was maintained at 37 °C in a humidified atmosphere with 5% CO2. The U87 cell line was a generous gift of Dr. József Tóvári (Department of Experimental Pharmacology, National Institute of Oncology, Budapest, Hungary).\nFor determining the cytostatic effect of the conjugates, U87 cells were grown to confluency and then divided into 96-well tissue culture plates with an initial cell number of 5.0 × 10^3 cells/well. After 24 h incubation at 37 °C, the cells were treated with the compounds overnight in the concentration range of 0.05–50 μM in 200 μL final volume containing 1.0 v/v% DMSO, whereas control cells were treated only with serum-free medium or with 1.0 v/v% DMSO at the same conditions. After the incubation, cells were washed twice with serum-free medium, then the cells were cultured for an additional 72 h in 10% serum-containing medium at 37 °C. Following that, MTT solution (at c = 0.37 mg/mL final concentration) was added to each well. The respiratory chain [32] and other electron transport systems reduced MTT and thereby formed non-water-soluble violet formazan crystals within the cells. The amount of these crystals can be determined by spectrophotometry and serves as an estimate for the number of mitochondria in addition to the number of living cells in the well [35]. After 3 h of incubation with MTT, the cells were centrifuged for 5 min at 2000 rpm and the supernatant was removed. The obtained formazan crystals were dissolved in DMSO (100 µL), and the optical density (OD) of the samples was measured at λ = 540 nm and 620 nm, respectively, using ELISA Reader (iEMS Reader, Labsystems, Finland). The OD620 values were subtracted from the OD540 values. The percent of cytostasis was calculated with the following equation:(1) Cytostatic effect (%)=1−ODtreated/ODcontrol×100 where the ODtreated and ODcontrol values correspond to the optical densities of the treated and the control wells, respectively. In each case, two independent experiments were carried out with four parallel measurements. Cytostasis was plotted as a function of concentration, and the half-maximal inhibitory concentration was calculated based on a sigmoid curve fitted on the data points using Microcal™ Origin 2018 software. IC50 represents the concentration of a compound that is required for 50% inhibition, expressed in micromolar units."}, "[3]": {"assay": "Degradation in rat liver lysosomal homogenate followed by HPLC-MS", "format": "in vitro ADME", "conditions": "pH 5.03, 37 °C", "description": "The conjugates were treated with lysosomal homogenate for 5 min, 1 h, 6 h, 24 h, and 72 h, and the degradation was followed by HPLC-MS. Control studies investigating conjugates in buffer (without lysosomal homogenate) were also performed, and for these, all conjugates were stable. […] At 6 h, it was the main drug-containing metabolite, and at 72 h, only this Dau-containing fragment could be detected. This time-dependent pattern was also observed in the case of conjugate 2, where Dau was attached to the side chain of Lys in position 15, and the formed smallest metabolite was H-Lys(Dau=Aoa)-OH. […] It is likely that, in this case, a large steric hindrance occurred, and the enzymes were not able to access the peptide bonds around ^10Lys. This observation might explain the discrepancy between the efficient cellular uptake and the lower anticancer activity of this conjugate.\nA stock solution with a concentration of 2.5 μg/μL was prepared from the conjugates in distilled water, and this was diluted 100× with 0.2 M sodium acetate buffer (pH 5.03). The rat liver lysosomal homogenate (16.6 μg/μL) was diluted 20× with the same buffer, and then the two solutions were mixed in a 1:1 (protein:peptide, m/m) ratio. In each case, control measurements were also performed, in which buffer was added to the conjugates instead of the lysosomal homogenate. The solutions were stirred at 600 rpm at 37 °C in a thermostat (ThermoMixer, Eppendorf AG, Hamburg, Germany), and after 5 min, 1 h, 6 h, 24 h, and 72 h, 50 μL samples were taken. Each reaction was quenched with 5 μL formic acid and the samples were stored frozen until analysis.\nThe HPLC-MS analysis of the samples was performed with a Dionex 3000 HPLC-Q Exactive Focus hybrid quadrupole-orbitrap mass spectrometer (Thermo Fisher Scientific, Bremen, Germany). For separation, a Supelco Ascentis C18 column (3 μm, 100 Å, 150 × 2.1 mm; Merck, Darmstadt, Germany) and gradient elution (0 min 2% B, 1 min 2% B, 17 min 90% B; A eluent: 0.1% formic acid/distilled water, eluent B: 0.1% formic acid/acetonitrile + distilled water (80:20, v/v%), flow rate 0.2 mL/min, 40 °C) was used, and high-resolution mass spectra were recorded in the range of 200–1800 m/z. The data were analyzed using the Xcalibur program (Thermo Fisher Scientific)."}}}
{"smiles": "COc1cccc2c1C(=O)c1c(O)c3c(c(O)c1C2=O)C[C@@](O)(C(C)=NOCC(=O)NCCCC[C@H](NC(=O)CNC(=O)[C@H](CCCNC(=N)N)NC(=O)[C@H](CO)NC(=O)CNC(=O)CNC(=O)[C@H](Cc1ccc(O)cc1)NC(=O)[C@H](Cc1ccccc1)NC(=O)[C@H](Cc1ccccc1)NC(=O)[C@@H](NC(=O)CON=C(C)[C@]1(O)Cc2c(O)c4c(c(O)c2[C@@H](O[C@H]2C[C@H](N)[C@H](O)[C@H](C)O2)C1)C(=O)c1c(OC)cccc1C4=O)[C@@H](C)O)C(=O)N[C@@H](CCCNC(=N)N)C(=O)N[C@@H](CC(N)=O)C(=O)N[C@@H](CC(N)=O)C(=O)N[C@@H](Cc1ccccc1)C(=O)N[C@@H](CCCCN)C(=O)N[C@H](C(=O)N[C@@H](CCC(=O)O)C(=O)N[C@@H](CCC(=O)O)C(=O)N[C@@H](Cc1ccc(O)cc1)C(=O)O)[C@@H](C)O)C[C@@H]3O[C@H]1C[C@H](N)[C@H](O)[C@H](C)O1", "note": "[compound 7, Dau=Aoa-TFFYGGSRGK(Dau=Aoa)RNNFKTEEY-OH]", "values": [{"measurement": "toxicity observed during the cellular uptake measurement (live cells in % of untreated control)", "setting": "[1]", "result": "slight toxicity"}, {"measurement": "IC50", "setting": "[2]", "result": "7.8 ± 6.3", "unit": "µM"}]}
{"smiles": "COc1cccc2c1C(=O)c1c(O)c3c(c(O)c1C2=O)C[C@@](O)(C(C)=NOCC(=O)NCC(=O)N[C@@H](Cc1ccccc1)C(=O)N[C@@H](CC(C)C)C(=O)NCC(=O)NCCCC[C@H](NC(=O)CNC(=O)[C@H](CCCNC(=N)N)NC(=O)[C@H](CO)NC(=O)CNC(=O)CNC(=O)[C@H](Cc1ccc(O)cc1)NC(=O)[C@H](Cc1ccccc1)NC(=O)[C@H](Cc1ccccc1)NC(=O)[C@@H](N)[C@@H](C)O)C(=O)N[C@@H](CCCNC(=N)N)C(=O)N[C@@H](CC(N)=O)C(=O)N[C@@H](CC(N)=O)C(=O)N[C@@H](Cc1ccccc1)C(=O)N[C@@H](CCCCN)C(=O)N[C@H](C(=O)N[C@@H](CCC(=O)O)C(=O)N[C@@H](CCC(=O)O)C(=O)N[C@@H](Cc1ccc(O)cc1)C(=O)O)[C@@H](C)O)C[C@@H]3O[C@H]1C[C@H](N)[C@H](O)[C@H](C)O1", "note": "[compound 9, H-TFFYGGSRGK(Dau=Aoa-GFLG)RNNFKTEEY-OH]", "values": [{"measurement": "toxicity observed during the cellular uptake measurement (live cells in % of untreated control)", "setting": "[1]", "result": "slight toxicity"}, {"measurement": "release of Dau=Aoa-Gly-OH (in words)", "setting": "[3]", "result": "particularly slow"}, {"measurement": "IC50", "setting": "[2]", "result": "16.9 ± 5.6", "unit": "µM"}]}
{"smiles": "COc1cccc2c1C(=O)c1c(O)c3c(c(O)c1C2=O)C[C@@](O)(C(C)=NOCC(=O)N[C@H](C(=O)N[C@@H](C)C(=O)NCCCC[C@H](NC(=O)CNC(=O)[C@H](CCCNC(=N)N)NC(=O)[C@H](CO)NC(=O)CNC(=O)CNC(=O)[C@H](Cc1ccc(O)cc1)NC(=O)[C@H](Cc1ccccc1)NC(=O)[C@H](Cc1ccccc1)NC(=O)[C@@H](N)[C@@H](C)O)C(=O)N[C@@H](CCCNC(=N)N)C(=O)N[C@@H](CC(N)=O)C(=O)N[C@@H](CC(N)=O)C(=O)N[C@@H](Cc1ccccc1)C(=O)N[C@@H](CCCCN)C(=O)N[C@H](C(=O)N[C@@H](CCC(=O)O)C(=O)N[C@@H](CCC(=O)O)C(=O)N[C@@H](Cc1ccc(O)cc1)C(=O)O)[C@@H](C)O)C(C)C)C[C@@H]3O[C@H]1C[C@H](N)[C@H](O)[C@H](C)O1", "note": "[compound 10, H-TFFYGGSRGK(Dau=Aoa-VA)RNNFKTEEY-OH]", "values": [{"measurement": "amount of H-K(Dau=Aoa-VA)-OH formed", "setting": "[3]", "result": "very small amounts"}, {"measurement": "amount of expected metabolite Dau=Aoa-Val-OH produced after 72 h", "setting": "[3]; 72 h", "result": "negligible amounts"}, {"measurement": "IC50", "setting": "[2]", "result": "> 50", "unit": "µM"}]}
{"smiles": "COc1cccc2c1C(=O)c1c(O)c3c(c(O)c1C2=O)C[C@@](O)(C(C)=NOCC(=O)N[C@H](C(=O)N[C@@H](C)C(=O)NCC(=O)NCC(=O)NCCCC[C@H](NC(=O)CNC(=O)[C@H](CCCNC(=N)N)NC(=O)[C@H](CO)NC(=O)CNC(=O)CNC(=O)[C@H](Cc1ccc(O)cc1)NC(=O)[C@H](Cc1ccccc1)NC(=O)[C@H](Cc1ccccc1)NC(=O)[C@@H](N)[C@@H](C)O)C(=O)N[C@@H](CCCNC(=N)N)C(=O)N[C@@H](CC(N)=O)C(=O)N[C@@H](CC(N)=O)C(=O)N[C@@H](Cc1ccccc1)C(=O)N[C@@H](CCCCN)C(=O)N[C@H](C(=O)N[C@@H](CCC(=O)O)C(=O)N[C@@H](CCC(=O)O)C(=O)N[C@@H](Cc1ccc(O)cc1)C(=O)O)[C@@H](C)O)C(C)C)C[C@@H]3O[C@H]1C[C@H](N)[C@H](O)[C@H](C)O1", "note": "[compound 11, H-TFFYGGSRGK(Dau=Aoa-VAGG)RNNFKTEEY-OH]", "values": [{"measurement": "time of appearance of the Dau=Aoa-Val-Ala-OH fragment", "setting": "[3]", "result": 1, "unit": "h"}, {"measurement": "amount of Dau=Aoa-Val-OH detected after 6 h", "setting": "[3]; 6 h", "result": "high amounts"}, {"measurement": "IC50", "setting": "[2]", "result": "20.2 ± 3", "unit": "µM"}]}
